According to PMC4264578:
Where two headings read alike, the source gives them in different places.

Columns and labels:
Assay in all cases: EMSA
GST-SUV39H1 [1] = target: T1, GST-SUV39H1 (UniProt O43463 1-412)
T1 sequence: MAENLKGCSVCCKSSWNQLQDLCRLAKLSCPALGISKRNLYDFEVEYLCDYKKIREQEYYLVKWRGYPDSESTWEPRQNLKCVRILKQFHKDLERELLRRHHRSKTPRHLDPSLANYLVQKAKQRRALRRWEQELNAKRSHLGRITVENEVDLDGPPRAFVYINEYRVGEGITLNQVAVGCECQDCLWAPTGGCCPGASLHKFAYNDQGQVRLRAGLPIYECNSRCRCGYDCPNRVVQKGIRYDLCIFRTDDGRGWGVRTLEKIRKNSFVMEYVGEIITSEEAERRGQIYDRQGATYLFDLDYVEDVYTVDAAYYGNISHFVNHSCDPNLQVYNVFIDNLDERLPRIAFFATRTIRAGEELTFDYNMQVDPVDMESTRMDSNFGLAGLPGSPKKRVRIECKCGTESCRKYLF

GST-SUV39H1 [2] = target: T1, GST-SUV39H1; remark: listed apart in the source
GST-SUV39H1 [3] = target: T1, GST-SUV39H1; remark: listed apart in the source

B1: (UUAGGG)7 TERRA RNA (ssRNA)
RNA: UUAGGGUUAGGGUUAGGGUUAGGGUUAGGGUUAGGGUUAGGG
B1: binds (GST-SUV39H1 [1]).

B2: (UUAGGG)10 TERRA RNA (ssRNA)
RNA: UUAGGGUUAGGGUUAGGGUUAGGGUUAGGGUUAGGGUUAGGGUUAGGGUUAGGGUUAGGG
B2: binds (GST-SUV39H1 [2]).

B3: (TTAGGG)10 DNA (ssDNA)
DNA: TTAGGGTTAGGGTTAGGGTTAGGGTTAGGGTTAGGGTTAGGGTTAGGGTTAGGGTTAGGG
B3: no binding (GST-SUV39H1 [3]).
